The results in this text go back to paper PMC3402478, “ADP Ribosylation by PARP-1 Suppresses HOXB7 Transcriptional Activity”.

For one series, the target named is GST-HOXB7 (UniProt P09629 1-217). In words: EMSA; no PARP-1; competed by 100-fold unlabeled probe; EMSA: 50 mM Tris-HCl pH 7.5, 50 mM NaCl, 1 mM MgCl2, 0.5 mM DTT, 4% glycerol, 0.5 mM EDTA, 0.25 mg/ml poly(dI-dC), 20 min, gel at room temperature; ONP: 60 mM KCl, 12 mM HEPES pH 7.9, 4 mM Tris-HCl, 5% glycerol, 0.5 mM EDTA, 1 mM DTT, 4 C, 3 h. To be noted: protein: recombinant; tags: GST; label: 32P; blunt.

Series [1] concerns the target PARP-1 (purified, Trevigen) (UniProt P09874 1-1014). As to the kind of experiment: EMSA; EMSA: 50 mM Tris-HCl pH 7.5, 50 mM NaCl, 1 mM MgCl2, 0.5 mM DTT, 4% glycerol, 0.5 mM EDTA, 0.25 mg/ml poly(dI-dC), 20 min, gel at room temperature; ONP: 60 mM KCl, 12 mM HEPES pH 7.9, 4 mM Tris-HCl, 5% glycerol, 0.5 mM EDTA, 1 mM DTT, 4 C, 3 h. To be noted: protein: commercial; label: 32P; blunt. (In general: A gel shift assay detects complexes by their altered migration in electrophoresis.)

Sequence of GST-HOXB7 (P09629 whole entry): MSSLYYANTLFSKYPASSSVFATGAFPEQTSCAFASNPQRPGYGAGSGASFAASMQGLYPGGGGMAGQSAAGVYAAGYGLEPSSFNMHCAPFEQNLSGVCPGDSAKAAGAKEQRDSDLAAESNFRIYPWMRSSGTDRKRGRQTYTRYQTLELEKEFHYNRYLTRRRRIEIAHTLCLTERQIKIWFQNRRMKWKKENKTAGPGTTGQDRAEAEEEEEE
Sequence of PARP-1 (purified, Trevigen) (P09874 whole entry): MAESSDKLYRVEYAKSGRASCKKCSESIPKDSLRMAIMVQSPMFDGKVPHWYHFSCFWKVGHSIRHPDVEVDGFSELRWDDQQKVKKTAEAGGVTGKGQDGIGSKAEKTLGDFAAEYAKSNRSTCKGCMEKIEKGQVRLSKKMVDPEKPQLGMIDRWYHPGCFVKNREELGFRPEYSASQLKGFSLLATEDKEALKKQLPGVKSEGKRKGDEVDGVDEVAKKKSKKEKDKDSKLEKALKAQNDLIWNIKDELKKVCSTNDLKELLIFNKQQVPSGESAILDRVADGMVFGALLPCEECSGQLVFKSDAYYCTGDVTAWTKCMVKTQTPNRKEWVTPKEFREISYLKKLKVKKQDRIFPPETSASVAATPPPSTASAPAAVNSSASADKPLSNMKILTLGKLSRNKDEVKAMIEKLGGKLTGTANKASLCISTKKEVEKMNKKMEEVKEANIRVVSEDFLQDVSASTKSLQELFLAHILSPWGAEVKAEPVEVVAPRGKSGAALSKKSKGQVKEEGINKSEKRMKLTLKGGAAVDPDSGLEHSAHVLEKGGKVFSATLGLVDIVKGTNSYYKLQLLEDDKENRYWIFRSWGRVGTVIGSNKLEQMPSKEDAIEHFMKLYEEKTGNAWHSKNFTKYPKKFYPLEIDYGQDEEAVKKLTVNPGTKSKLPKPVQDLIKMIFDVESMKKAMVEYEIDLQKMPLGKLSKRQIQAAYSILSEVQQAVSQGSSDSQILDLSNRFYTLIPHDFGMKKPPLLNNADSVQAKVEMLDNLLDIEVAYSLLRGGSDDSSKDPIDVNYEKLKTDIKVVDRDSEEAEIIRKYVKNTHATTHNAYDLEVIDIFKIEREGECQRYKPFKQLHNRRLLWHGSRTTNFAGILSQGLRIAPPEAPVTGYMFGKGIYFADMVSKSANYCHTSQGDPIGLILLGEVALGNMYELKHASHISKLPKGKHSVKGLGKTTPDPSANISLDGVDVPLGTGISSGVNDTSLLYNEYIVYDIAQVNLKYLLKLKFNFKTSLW

B1: HBS EMSA probe (dsDNA)
DNA 1: AAATATCAATTAAATCTTAATTATAA
DNA 2: TTATAATTAAGATTTAATTGATATTT
Take B1: the binding result with GST-HOXB7 is listed as “binds”; in series [1], “no binding”.
